Laboratory results from patent US20260055186A1 (REPERTOIRE IMMUNE MEDICINES, published 2026).
Changes are numbered by the printed parent chain. Read-outs that look alike come from different tables or passages of the source.

What was measured:
[1] = biological target: T1, human CD8 on human T cells (human, UniProt P01732 22-235); assay: flow cytometry on human CD8+ T cells, titration, apparent KD
T1 construct: whole, on cells; the antibodies were raised against human CD8 alpha; also called CD8 on human CD8+ T cells; hCD8
T1 sequence (P01732 22-235): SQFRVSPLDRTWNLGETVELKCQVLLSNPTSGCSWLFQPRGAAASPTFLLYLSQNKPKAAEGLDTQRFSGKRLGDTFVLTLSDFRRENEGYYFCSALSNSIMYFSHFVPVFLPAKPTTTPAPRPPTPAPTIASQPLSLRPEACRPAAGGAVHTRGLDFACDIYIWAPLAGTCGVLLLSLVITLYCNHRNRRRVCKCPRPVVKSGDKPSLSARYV
Experimental: (§1) The 16 above-referenced humanized 03A01-derived anti-CD8 antibodies were screened for their ability to bind human CD8 by evaluating binding to CD8⁺ T cells. The non-humanized parent (“03-Parent”) and the non-humanized parent comprising a heavy chain D64E liability mutation (“03-Parent-VH-D64E”) were used as controls. […] Cells were washed with 1×phosphate buffered saline (PBS) containing 1 mg/mL bovine serum albumin (PBS/BSA) and then stained with a 1:100 dilution of DyLight650-conjugated anti-human IgG H+L polyclonal antibody (ThermoFisher cat. no. Sa5-10129) in PBS/BSA. Following a 20-30 min incubation at 4° C., the cells were washed once with PBS/BSA, and then resuspended in PBS/BSA for analysis on a FACSCelesta using Diva software (BD Biosciences). The resulting data were analyzed using FlowJo. Data were quantified and reported as Max fluorescence intensity (MFI) of human IgG-Fc. […] Complete replacement of the LCDR1 (antibodies comprising VK4) eliminated binding to the CD8⁺ T cells.
(§2) The binding affinities of five of the above-referenced humanized anti-CD8 antibodies to human CD8 were determined by evaluating binding to CD8 human T cells using the method described above. Binding to human CD8+ T cells was tested at 7 serial 5-fold dilutions of each humanized 03A01 variant (from 50 nM to 3.2 pM). The resulting data were analyzed using FlowJo.

[2] = biological target: T1, human CD8 on human T cells; assay: flow cytometry on human CD8+ T cells, titration
Experimental: as §1, §2

[3] = biological target: T1, human CD8 on human T cells; assay: flow cytometry on human CD3+ T cells, apparent KD, 4PL fit
Experimental: (§3) The amino acid sequences of the resulting murine anti-CD8 antibodies 02A01, 03A01, 04D08, 05F10, and 11F05 are provided in Tables 1-3 herein above. These antibodies were recombinantly produced. Their binding affinity to CD8 expressed on the cell surface was measured by flow cytometry, and their respective binding affinities are reported in Table 8 and Table 9. Briefly, human or cynomolgus monkey CD3⁺ T cells were incubated with […] of anti-CD8 antibodies (from 250 nM to […]) for 30 minutes. Following the incubation, unbound antibodies were washed away, and the bound antibodies were detected with a AlexaFluor-647-labeled anti-human Fc detection antibody. The median fluorescence intensity of AlexaFluor-647 on the live cells was used to evaluate anti-CD8 antibody levels on the cell surface. Binding affinity (KD) values for anti-CD8 antibody T cell binding were determined with GraphPad Prism 7.0 using 4-Parameter logistic regression.

[4] = biological target: T2, cynomolgus monkey CD8 on cynomolgus cells (cynomolgus monkey); assay: flow cytometry on cynomolgus CD3+ T cells, apparent KD, 4PL fit
T2 construct: whole, on cells; also called cynomolgus CD8
Experimental: as §3

[5] = biological target: T1, human CD8 on human T cells; assay: cell-based or functional assay
[6] = biological target: T1, human CD8 on human T cells; assay: flow cytometry, human PBMC co-cultured 1 h with the fusion protein, anti-IL2 staining gated on CD8 T cells (IL2 loading, MFI)
Experimental: (§4) Anti-human CD8-human IL2 molecules were evaluated for their ability to specifically bind and load IL2 on CD8 T cells. Briefly, 1×10⁵ human PBMC were co-cultured with indicated CD8-IL2 (human FC receptor) molecules from one of the concentrations ranging from 0.05 pM to 0.4 nM. Following one hour incubation with molecules, PBMC were washed twice with RPMI complete medium and washed once with PBS. The washed cells were stained with anti-IL2 (MQ1-17H12), anti-human kappa (MHK-49) and lineage surface markers CD3(UCHT1), CD4(SK3) and NK(HCD56) for 20 minutes, after which the cells were washed and analyzed using a flow cytometer. The binding affinity was quantified and represented as mean fluorescence intensity (MFI).

[7] = biological target: T1, human CD8 on human T cells; assay: cell-based or functional assay; remark: listed apart in the source
[8] = biological target: T1, human CD8 on human T cells; assay: flow cytometry, human PBMC co-cultured 1 h with the fusion protein, anti-human kappa staining on CD8 T cells (CD8 antibody binding, MFI)
Experimental: as §4

[9] = biological target: T1, human CD8 on human T cells; assay: flow cytometry, human CD8+ T cells, antibody at 0.2 nM, anti-human IgG detection (MFI AF647)
Experimental: (§5) The 24 humanized 02A01-derived anti-CD8 antibodies (excluding 02A01-VK3(D30E/N35Q)) were screened for their ability to bind human CD8 by evaluating binding to CD8+ T cells. The non-humanized parent (“02-Parent”) and the non-humanized parent comprising a heavy chain M39L liability mutation (“02-Parent-VH-M39L”) were used as controls. […] Cells were washed with 1×phosphate buffered saline (PBS) containing 1 mg/mL bovine serum albumin (PBS/BSA) and then stained with a 1:100 dilution of DyLight650-conjugated anti-human IgG H+L polyclonal antibody (ThermoFisher cat. no. Sa5-10129) in PBS/BSA. Following a 20-30 min incubation at 4° C., the cells were washed once with PBS/BSA, and then resuspended in PBS/BSA for analysis on a FACSCelesta using Diva software (BD Biosciences). The resulting data were analyzed using FlowJo. Data were quantified and reported as Max fluorescence intensity (MFI) of human IgG-Fc. […] Complete replacement of the HCDR1 (antibodies comprising VH5) eliminated binding to the CD8+ T cells.

[10] = biological target: T1, human CD8 on human T cells; assay: flow cytometry on human CD8+ T cells, titration; remark: listed apart in the source
Experimental: as §5
(§6) Binding to human CD8+ T cells was tested at 7 serial 5-fold dilutions of each tested humanized 02A01 variant (from 50 nM to 3.2 pM). The resulting data were analyzed using FlowJo.

[11] = biological target: T3, human CD8α/β (human, UniProt P01732 22-182; P10966 22-170); assay: SPR, antibody captured on Protein A chip, hCD8α/β as analyte, 1:1 fit
T3 construct: Soluble heterodimer used in SPR and in the Carterra binning (there printed only as CD8α/β); also called hCD8α/β
T3 sequence (P01732 22-182, chain 1 of 2): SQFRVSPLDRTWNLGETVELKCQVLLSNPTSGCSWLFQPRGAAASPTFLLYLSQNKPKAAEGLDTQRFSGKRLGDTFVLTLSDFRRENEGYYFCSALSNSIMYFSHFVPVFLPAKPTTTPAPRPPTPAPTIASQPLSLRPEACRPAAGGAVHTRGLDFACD
T3 sequence (P10966 22-170, chain 2 of 2): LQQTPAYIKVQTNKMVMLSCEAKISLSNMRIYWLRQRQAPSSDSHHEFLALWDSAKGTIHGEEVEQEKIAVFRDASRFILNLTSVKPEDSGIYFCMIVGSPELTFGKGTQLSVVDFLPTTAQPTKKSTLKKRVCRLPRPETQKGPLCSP
Experimental: (§7) The binding affinities of six of the humanized anti-CD8 antibodies to human CD8 were also determined by surface plasmon resonance (SPR). Briefly, equilibrium dissociation constants for human CD8α/β were determined using a real-time SPR biosensor using a Protein A Sensor Chip (Cytiva) to capture purified anti-CD8 monoclonal antibodies at a concentration of 0.5 nM. SPR binding studies were performed in a buffer composed of Phosphate buffered saline, pH 7.2 containing 0.05% v/v Surfactant P20 (PBS-P20 buffer). Different concentrations of hCD8α/β prepared in PBS-P20 running buffer (ranging from 500 nM to 7.8 nM, 2-fold dilutions) were injected over the anti-CD8 monoclonal antibody captured surface. Association of hCD8α/β to the captured monoclonal antibody was monitored for 400 seconds and the dissociation of hCD8α/β in PBS-P20 running buffer was monitored for 600 sec. All of the binding kinetics experiments were performed at 25° C. Kinetic association (kₐ) and dissociation (kd) rate constants were determined by fitting the real-time sensorgrams to a 1:1 binding model using Scrubber 2.0c curve fitting software.

[12] = biological target: T3, human CD8α/β; assay: SPR, antibody captured on Protein A chip, hCD8α/β as analyte
Experimental: as §7

[13] = biological target: T1, human CD8 on human T cells; assay: flow cytometry on human CD8+ T cells, titration, apparent KD; remark: listed apart in the source
Experimental: as §5, §6

B1: Murine 03A01 (antibody, V domains shown)
VH: DVQFQESGPGLVKPSQSLSLTCTVTGYSITSDFAWNWIRQFPGNELEWMGYISYSGDTNYNPSLRSRISITRDTSKNQFFLQLDSVTTEDTATYYCTIRGYYTDSAFVFWGQGTLVTVSA
VL: DIQMTQSSSYLSVSLGGRVTITCKASDHINNWLAWYQQKPGNAPRLLISGATSLETGVPSRFTGSGSGLDYTLSITSLQTEDVATYYCQQYWNSPFTFGSGTKLEIK
notes: Recombinantly produced IgG; also called 03-parental; 03-Parent
For B1, the Kd [1] was 0.926 nM, the “Fold Change to Parental Apparent KD” value [2] was 1 fold and the Kd [3] was 0.86 nM. The Kd [4] was 1.77 nM.

B2: hCD8 IgG IL2 1× (HC) (other)
VH: EVQLVQSGAEVKKPGATVKISCKASGYTFTDFTMHWVQQAPGKGLEWIGLVNPNNGGNIYAEKFQGRVTLTVDTSTSTAYMELSSLRSEDTAVYYCGRVPLYTSHGMDYWGQGTLVTVSS
VL: EIVLTQSPATLSLSPGERATISCRASESVDSYDINSMHWYQQKPGQAPRLLIYRASHLQSGIPARFSGSGSRTDFTLTISSLEPEDFATYYCQQSNEDPLTFGQGTKLEIK
notes: read as humanized 02A01-VH6-VK3; One wild type human IL-2 on one heavy chain C-terminus; also called hCD8 IgG-IL2(HC)
B2 was tested, and the “EC50 of pSTAT5 activation in human CD8+ T cells” value [5] was 0.448 pM, the “EC50 (read off the curve)” value [6] was about 0.03 nM and the “EC50 of Ki67 expression (proliferation) in human CD8+ T cells” value [7] was 0.0689 nM. For the same binder, the “EC50 (read off the curve)” value [8] was about 0.03 nM.

B3: humanized 02A01-VH5-VK3 (antibody, human IgG1, V domains shown)
VH: B2 VH with V18L, F32Y, T33Y, A61N, E62Q, K63N, Q65K, V68A, A92S
VL: B2 VL
notes: human IgG1 format; VH5 has the HCDR1 of the top human germline hit
B3: no binding (tested: 0.2 nM) [9].

B4: humanized 02A01-VH5-VK2 (antibody, human IgG1, V domains shown)
VH: B2 VH with V18L, F32Y, T33Y, A61N, E62Q, K63N, Q65K, V68A, A92S
VL: B2 VL with L13V, L82V
notes: as for B3
B4: no binding (tested: 0.2 nM) [9].

B5: hCD8 IgG IL2 (LC) (other)
VH: B2 VH
VL: B2 VL
notes: read as humanized 02A01-VH6-VK3; Wild type human IL-2 on each light chain C-terminus
In the case of B5, the “EC50 of pSTAT5 activation in human CD8+ T cells” value [5] is reported as 0.246 pM, the “EC50 (read off the curve)” value [6] is reported as about 0.03 nM and the “EC50 of Ki67 expression (proliferation) in human CD8+ T cells” value [7] is reported as 0.0551 nM. For the same binder, the “EC50 (read off the curve)” value [8] was about 0.03 nM.

B6: humanized 02A01-VH5-VK1 (antibody, human IgG1, V domains shown)
VH: B2 VH with V18L, F32Y, T33Y, A61N, E62Q, K63N, Q65K, V68A, A92S
VL: B2 VL with L13V, A47P, L82V
notes: as for B3
B6: no binding (tested: 0.2 nM) [9].

B7: Murine 02A01 (antibody, V domains shown)
VH: EVQLQQSGPELVKPGASLKISCKASGYTFTDFTMHWVKQSHGKSLEWIGLVNPNNGGNIYNQNFKGKATLTVDTSSSTAYMELRSLTSEDSSVYYCGRVPLYTSHGMDYWGQGTSVTVSS
VL: DIVLTQSPAFLAVSLGQRATISCRASESVDSYDINSMHWYQQKPGQPPKLLIYRASHLQSGIPARFSGSGSRTDFTLTINFVEADDVATYYCQQSNEDPLTFGAGTKLELK
notes: Recombinantly produced IgG; also called 02-parental; 02-Parent
With B7 the “Fold Change to Parental Apparent KD” value [10] was 1 fold, the “Maximum CD8+ T cell Binding (MFI)” value [10] was 2900 MFI and the Kd [11] was 9.29 nM. For the same binder, the “Fold Change to Parental Calculated KD” value [12] was 1 fold, the Kd [3] was 0.047 nM and the Kd [13] was 0.057 nM. The Kd [4] was 0.075 nM.

B8: 05F10 (antibody, V domains shown)
VH: EVQLVESGGGLVKPGGSLKLSCAASGFTFSSFAMSWVRQTPAKRLEWVATISSGDLSANYPDTVKGRFTISRDNAKNTLYLQMSSLRSEDTAMYYCTRPPFYFSNDWFAYWGQGTLVTVSA
VL: DVVMTQTPLSLPVSLEDQASISCRSSQSLEHSNGNTYLHWYLQKPGQSPRLLIYKVSNRFSGVPDRFSGSGSGTDFTLKISRVEAEDLGVYFCSQSTHVPFTFGSGTKLEIK
notes: Recombinantly produced murine anti-CD8 IgG
B8 gave a Kd [3] of 0.242 nM and a Kd [4] of 39.8 nM.
